Laboratory results reported in patent US20180022822A1, “NOVEL ANTI-FIBROBLAST ACTIVATION PROTEIN (FAP) BINDING AGENTS AND USES THEREOF” (Mabimmune Diagnostics AG, priority 2016, published 2018).

T1: captured FAP (sFAP) (Homo sapiens, UniProt Q12884)
T1 sequence (Q12884 1-760): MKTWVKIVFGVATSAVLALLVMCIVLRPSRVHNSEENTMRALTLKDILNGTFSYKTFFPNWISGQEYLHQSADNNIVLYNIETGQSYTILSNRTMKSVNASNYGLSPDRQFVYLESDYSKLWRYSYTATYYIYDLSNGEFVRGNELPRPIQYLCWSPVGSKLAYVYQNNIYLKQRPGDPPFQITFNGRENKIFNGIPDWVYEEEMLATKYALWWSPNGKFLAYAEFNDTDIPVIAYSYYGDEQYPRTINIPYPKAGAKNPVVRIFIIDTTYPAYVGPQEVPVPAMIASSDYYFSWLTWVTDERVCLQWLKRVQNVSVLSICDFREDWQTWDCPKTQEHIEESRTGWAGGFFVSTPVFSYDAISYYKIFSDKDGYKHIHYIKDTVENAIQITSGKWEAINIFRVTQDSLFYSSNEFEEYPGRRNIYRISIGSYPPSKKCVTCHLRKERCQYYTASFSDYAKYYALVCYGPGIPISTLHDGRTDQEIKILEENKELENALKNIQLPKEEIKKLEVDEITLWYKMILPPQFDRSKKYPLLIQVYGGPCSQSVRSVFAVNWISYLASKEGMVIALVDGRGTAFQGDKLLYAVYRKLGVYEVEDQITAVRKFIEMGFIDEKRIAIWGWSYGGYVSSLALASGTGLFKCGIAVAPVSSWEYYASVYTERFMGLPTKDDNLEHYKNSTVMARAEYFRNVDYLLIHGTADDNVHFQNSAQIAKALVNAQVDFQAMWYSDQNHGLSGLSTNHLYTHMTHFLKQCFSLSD

T2: transmembrane human FAP on FAP expressing HEK293 cells (Homo sapiens, UniProt Q12884)
T2 construct: HEK293 cells were transduced with retrovirus encoding full length human FAP cDNA; host or cells: HEK293 (retroviral transduction, G418 selected)
T2 sequence (Q12884 1-760): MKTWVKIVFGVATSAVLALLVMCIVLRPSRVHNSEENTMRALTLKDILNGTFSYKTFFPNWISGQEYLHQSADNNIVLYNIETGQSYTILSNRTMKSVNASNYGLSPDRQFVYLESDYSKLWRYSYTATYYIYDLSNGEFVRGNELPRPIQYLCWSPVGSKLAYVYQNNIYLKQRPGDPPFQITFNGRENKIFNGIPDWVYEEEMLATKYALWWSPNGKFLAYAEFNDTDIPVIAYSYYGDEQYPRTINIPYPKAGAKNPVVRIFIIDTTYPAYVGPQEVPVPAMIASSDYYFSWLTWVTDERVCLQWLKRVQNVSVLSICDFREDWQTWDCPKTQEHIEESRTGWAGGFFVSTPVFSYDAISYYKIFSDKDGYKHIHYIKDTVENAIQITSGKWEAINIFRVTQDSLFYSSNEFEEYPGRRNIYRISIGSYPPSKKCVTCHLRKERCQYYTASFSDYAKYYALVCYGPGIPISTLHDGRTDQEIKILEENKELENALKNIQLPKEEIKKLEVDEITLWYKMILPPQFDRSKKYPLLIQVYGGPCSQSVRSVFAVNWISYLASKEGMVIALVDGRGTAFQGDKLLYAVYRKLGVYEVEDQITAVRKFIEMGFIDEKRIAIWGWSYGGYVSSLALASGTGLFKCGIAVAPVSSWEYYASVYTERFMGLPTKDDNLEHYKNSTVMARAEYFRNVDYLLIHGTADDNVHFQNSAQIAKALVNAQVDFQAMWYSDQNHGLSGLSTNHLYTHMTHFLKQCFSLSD


Key:
captured FAP (sFAP) = target: T1, captured FAP (sFAP); assay: capture ELISA, FAP captured via his-tag with coated anti-His antibody; format: binding; details: ELISA, varying antibody concentrations
Description: (§1) ELISA assays were performed with varying antibody concentrations to validate the binding of the exemplary antibodies of the present invention to FAP and to be able to determine their half maximal effective concentration (EC50). For the exemplary recombinant human NI-206-18H2, NI-206-20A8, NI-206-6D3, ‘NI-206-14C5, NI-206-34C11, NI-206.82C2, NI-206.59B4, NI-206.22F7, NI-206.27E8, NI-206.12G4 and NI-206.17A6 antibodies, 96-well microplates (Costar, Corning, USA) were coated with FAP, with a mixture of the 3 peptides or with BSA (Sigma-Aldrich, Buchs, Switzerland) diluted to a concentration of 5 μg/ml in carbonate ELISA coating buffer (15 mM Na2CO3, 35 mM NaHCO3, pH 9.4) for the direct ELISA. For the capture ELISA, the microplates were coated with mouse anti-His monoclonal antibody (Clontech) diluted to a concentration of 3 μg/ml in PBS, the plates were then blocked, FAP or BSA were diluted to a concentration of 2 μg/ml in PBS and added to the plates to be captured. The binding efficiency of the antibodies was then tested.
(§2) The EC50 values were estimated by a non-linear regression using GraphPad Prism (San Diego, USA) software. […] The binding of NI-206.12G4 towards sFAP was not tested.

BSA = target: T3, BSA (Bos taurus, UniProt P02769); assay: ELISA control binding to BSA; parameters: species or system bovine
T3 construct: purchased Sigma-Aldrich
Description: as §1

[1] = target: T2, transmembrane human FAP on FAP expressing HEK293 cells; assay: flow cytometry of Cy5 labelled antibodies on FAP-HEK293 cells in pH adjusted PBS; format: cell-based; details: pH 7.4 to 6.2; 0.1-100 nM Cy5 labelled antibody
Description: To evaluate the binding of NI-206.82C2, NI-206.59B4, NI-206.27E8, NI-206.12G4, NI-206.18H2 and NI-206.6D3 to transmembrane human FAP, an FAP expressing HEK293 cell line was received from the National Institutes of Health, Bethesda, Md. The generation of this FAP expressing HEK293 cells is described in: J. Exp. Med. 2013 Vol. 210 No. 6 1125-1135. HEK293 cells were transduced with retrovirus encoding full length human FAP cDNA. Cloning was performed using Fast Cloning Pack and FastDigest restriction enzymes (both from Fermentas). Transient retroviral supernatants were generated by transfecting 293GP cells with the FAP plasmid using Lipofectamine 2000 (Invitrogen). Retroviral supernatants were collected at 48 h after transfection and centrifuged onto Retronectin-coated (10 μg/ml; Takara), non-tissue culture-treated 6-well plates at 2,000 G for 2 h at 32° C. These retroviral supernatants where then used to transduce HEK293 cells overnight. Transduced FAP-HEK293 cells were selected with 1 mg/ml G418 (CellGro).
500′000 FAP-HEK293 cells were incubated for 1 hr at 4° C. either with Cy5 labelled NI-206.82C2, NI-206.59B4, NI-206.27E8, NI-206.12G4, NI-206.18H2 or NI-206.6D3 or with Cy5 labelled 43A11 at four different antibody concentrations (0.1, 1, 10, and 100 nM) in seven different pH-adjusted PBS buffers (pH 7.4, 6.8, 6.6, 6.5, 6.4, 6.3 and 6.2). PBS buffers were adjusted to using MES monohydrate (Sigma Aldrich). Following incubation, cells were washed 3 times with 200 uL in matched pH-adjusted PBS, spun at 400G for 4 min, and resuspended in 200 μL of pH adjusted buffer.
To analyze antibody binding, fluorescent activated flow cytometry was performed using a BD Fortesa device for forward scatter, side scatter, and the mean fluorescent intensity (MFI) of the Cy5 channel was recorded using a […] laser excitation and 600/20 filter. Viable cells were gated by forward and side scatter, and singlets/doublet exclusion, and the MFI for Cy5 was quantified using FlowJo software Version 10.1.

[2] = test system: directly coated FAP peptides mixture (cFAP); assay: direct ELISA on coated mixture of FAP peptides; format: binding, human; details: peptides 378-392, 622-636, 721-736
Description: as §1, §2

[3] = test system: obstructive human coronary thrombi and aortic atherosclerotic plaque; assay: confocal immunofluorescence on human coronary thrombi and aortic atherosclerotic plaque; details: Cy3 labelled antibody
Description: NI-206.82C2 was labelled with Cyanine 3 for fluorescent imaging (Cy3 conjugation kit: Innova Biosciences, 340-0030) and antibody labelling was validated using a spectophotometer. Cryosections from myocardial infarction causing obstructive human coronary thrombi (FIG. 14, A) and human aortic atherosclerotic plaque (FIG. 14, B) were fixed for 5 minutes in ice cold acetone and allowed to dry for 10 minutes before washing in PBS. The sections were then incubated for 1 hr at room temperature in 5% BSA in PBS, and then incubated with Cyanine 3 labelled antibodies overnight at 4° C., before washing three times in PBS before incubation with DAPI at 0.5 μg/mL. Sections were then washed three additional times in PBS and mounted in Lisbeth's mounting medium before imaging on a SP8 confocal microscope (Leica Microsystems).

4T1 breast tumor = details: mouse, in vivo
Description: A murine cancer model was generated by the injection of 100′000 4T1 cultured breast tumor cells orthotopically into the 2nd left breast of Balb/c immunocompetent mice and allowed to grow for 7 days. Prior to in vivo imaging, the animals were shaved and de-epilated to remove fur for minimal absorbance and scattering of the incident optical light. In-vivo imaging was performed with the Maestro 500 imaging system (Cambridge Research Inc, Woburn, USA). For A680-82C2 detection, a band pass filter from 615 nm-665 nm and a highpass filter over 700 nm were used for excitation and emission light respectively, and fluorescence was detected by a CCD camera (cooled to 11° C.). A series of images were acquired at different wavelengths and then subjected to spectral unmixing (deconvolution of collected optical spectra; this enabled the unmixing of the Alexa680 fluorescence pattern from tissue auto-fluorescence and other spectral contributions).
Whole mice images were acquired at the following timepoints: before antibody injection, immediately after antibody injection, 6 h, 24 h, 48 h, and 6 d after antibody injection.

T3 sequence (P02769 25-607): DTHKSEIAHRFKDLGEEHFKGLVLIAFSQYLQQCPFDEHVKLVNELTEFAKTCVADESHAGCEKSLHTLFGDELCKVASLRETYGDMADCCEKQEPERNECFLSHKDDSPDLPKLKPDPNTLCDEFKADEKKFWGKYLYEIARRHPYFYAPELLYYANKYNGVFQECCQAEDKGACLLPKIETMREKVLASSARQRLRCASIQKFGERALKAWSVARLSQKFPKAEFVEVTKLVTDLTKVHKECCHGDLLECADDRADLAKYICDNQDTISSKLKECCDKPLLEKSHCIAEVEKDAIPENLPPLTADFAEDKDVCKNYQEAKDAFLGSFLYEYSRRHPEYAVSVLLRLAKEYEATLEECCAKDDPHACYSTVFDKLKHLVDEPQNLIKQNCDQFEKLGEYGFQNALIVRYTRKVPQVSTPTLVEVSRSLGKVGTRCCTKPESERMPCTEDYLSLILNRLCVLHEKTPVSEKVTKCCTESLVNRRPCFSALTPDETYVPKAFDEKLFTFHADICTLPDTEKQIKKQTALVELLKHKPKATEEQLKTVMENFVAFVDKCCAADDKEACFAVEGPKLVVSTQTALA

binding to the captured FAP (captured FAP (sFAP))	binding to BSA (BSA)	paratope-specific avidity (ΔMFI) under acidic conditions vs. at pH 7.4 [1]	EC50 to the directly coated FAP peptides mixture (cFAP) [2]	binding to human coronary thrombi and aortic atherosclerotic plaque [3]	Molecule	antibody concentration after 6 d post antibody injection (4T1 breast tumor)
strongly and similarly bind	–	increased	did not show any binding	–	NI-206.6D3: human-derived recombinant anti-FAP antibody; VH SEQ ID NO: 49, VL SEQ ID NO: 51 (antibody, listed as Homo sapiens, V domains shown) VH: EVQLVESGGGLVKPGESLRLSCAASGFTFSKAWMNWVRQGPGKGLEWVGRVKSKTDGGTTDYAAPVKGRFTISRDDSKDTVFLQMNSLKTEDTAVYYCSIQFIVVGDRGRDDQYMDVWGKGTTVTVSS VL: SYVLTQPPSVSVSPGQTARITCSGDALPKQYAFWYQQKPGQAPVIMIYKDNQRPSGIPERFSGSSSGTTVTLTISGVQTEDEADYYCQSADSTNTHVVFGGGTKLTVL	–
specifically and strongly binds	does not bind	increased	did not show any binding	binds	NI-206.82C2: human-derived recombinant anti-FAP antibody; VH SEQ ID NO: 2 or 4 (PIMC), VL SEQ ID NO: 6 (antibody, V domains shown) VH: QVQLQQSGPGLVKPSQTLSLTCAISGDSVSSNSVTWNWIRQSPSRGLEWLGRTYYRSKWYNDYAVSVKGRITINPDTSKNQFYLQLKSVTPEDAAVYYCARDSSILYGDYWGQGTLVTVSS VL: QAVLTQPSSLSASPGASASLTCTLPSGINVGTYRIFWFQQKPGSPPQYLLSYKSDSDNHQGSGVPSRFSGSKDASANAGILLISGLQSEDEADYYCMIWHSSAWVFGGGTKLTVL	declines to almost zero

Molecule	binding to the captured FAP (captured FAP (sFAP))	binding to BSA (BSA)	paratope-specific avidity (ΔMFI) under acidic conditions vs. at pH 7.4 [1]	EC50 to the directly coated FAP peptides mixture (cFAP) [2]	binding to human coronary thrombi and aortic atherosclerotic plaque [3]	antibody concentration after 6 d post antibody injection (4T1 breast tumor)
NI-206.18H2: human-derived recombinant anti-FAP antibody; VH SEQ ID NO: 41, VL SEQ ID NO: 43 (antibody, listed as Homo sapiens, V domains shown) VH: QVQLQESGPRLVKPSETLSLTCTVSGYSISNGYYWGWIRQPPGQGLEWIASVWHSGNTYHNPSLKSRVTILVDTLKNQFSLNLKSVTAADTALYYCARSYTRNDVGAFETWGQGTMVTVSS VL: SYELTQPPSVSVSPGQTARIACSGDELPKRYAYWYQQKSGQAPVLVMYEDTKRPSGIPERLSGSSSGTVTTLTISGAQVEDEADYYCYSTAPSGNHTFVFGTGTRVTVL	specifically, strongly and similarly bind	does not bind	increased	did not show any binding	–	–
